Source: publication PMC2908990 (Molecular cell, 2009)

B1: CH1 domain of the murine IgG1 heavy chain, reduced (domain or fragment)
chain: not shown
modifications: internal disulfide bridge not formed (reduced)
B2: CH1 domain of the murine IgG1 heavy chain, oxidized (internal disulfide bridge formed) (domain or fragment)
chain: not shown
modifications: internal disulfide bridge formed (oxidized; Cys25-Cys80)

Target: BiP, murine sequence (hamster BiP mutated to the murine sequence) (murine, UniProt P20029 20-655)
Sequence (P20029 20-655, change not shown): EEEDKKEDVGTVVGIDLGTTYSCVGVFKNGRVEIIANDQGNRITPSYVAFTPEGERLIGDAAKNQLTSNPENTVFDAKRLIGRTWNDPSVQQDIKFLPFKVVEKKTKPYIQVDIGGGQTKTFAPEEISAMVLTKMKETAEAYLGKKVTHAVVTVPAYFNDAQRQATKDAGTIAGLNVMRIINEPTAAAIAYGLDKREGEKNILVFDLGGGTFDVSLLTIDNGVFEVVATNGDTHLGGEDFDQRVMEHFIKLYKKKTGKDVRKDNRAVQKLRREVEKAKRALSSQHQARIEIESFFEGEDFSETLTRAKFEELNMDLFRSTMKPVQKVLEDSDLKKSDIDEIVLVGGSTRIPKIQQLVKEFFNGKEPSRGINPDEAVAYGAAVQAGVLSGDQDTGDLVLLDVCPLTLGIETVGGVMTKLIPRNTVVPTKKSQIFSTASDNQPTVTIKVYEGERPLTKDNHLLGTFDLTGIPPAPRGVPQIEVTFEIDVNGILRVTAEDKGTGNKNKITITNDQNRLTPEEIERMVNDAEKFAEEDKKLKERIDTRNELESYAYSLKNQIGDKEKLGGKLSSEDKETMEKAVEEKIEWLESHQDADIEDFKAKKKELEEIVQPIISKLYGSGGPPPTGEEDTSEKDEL
Test: SEC

| Binder | Kd | koff | kon |
| --- | --- | --- | --- |
| B1 | 4.2 ± 0.4 µM | 7.83e-05 s⁻¹ | 6.83 M⁻¹ s⁻¹ |
| B2 | 12.6 ± 0.7 µM | 8.33e-05 s⁻¹ | 4.33 M⁻¹ s⁻¹ |
